In IntAct's records for PubMed 35512704:

B1: Speckle-type POZ protein (Homo sapiens), O43791 (parent)
chain: MSRVPSPPPPAEMSSGPVAESWCYTQIKVVKFSYMWTINNFSFCREEMGEVIKSSTFSSGANDKLKWCLRVNPKGLDEESKDYLSLYLLLVSCPKSEVRAKFKFSILNAKGEETKAMESQRAYRFVQGKDWGFKKFIRRDFLLDEANGLLPDDKLTLFCEVSVVQDSVNISGQNTMNMVKVPECRLADELGGLWENSRFTDCCLCVAGQEFQAHKAILAARSPVFSAMFEHEMEESKKNRVEINDVEPEVFKEMMCFIYTGKAPNLDKMADDLLAAADKYALERLKVMCEDALCSNLSVENAAEILILADLHSADQLKTQAVDFINYHASDVLETSGWKSMVVSHPHLVAEAYRSLASAQCPFLGPPRKRLKQS
partner: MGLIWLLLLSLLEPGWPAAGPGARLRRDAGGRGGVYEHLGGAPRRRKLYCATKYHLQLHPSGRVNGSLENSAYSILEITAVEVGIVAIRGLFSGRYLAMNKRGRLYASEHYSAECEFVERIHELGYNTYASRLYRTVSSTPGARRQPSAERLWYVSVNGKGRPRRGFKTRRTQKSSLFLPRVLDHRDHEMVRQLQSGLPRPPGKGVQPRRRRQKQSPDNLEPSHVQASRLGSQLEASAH
B2: Speckle-type POZ protein (Homo sapiens), O43791 (parent)
chain: B1 chain
partner: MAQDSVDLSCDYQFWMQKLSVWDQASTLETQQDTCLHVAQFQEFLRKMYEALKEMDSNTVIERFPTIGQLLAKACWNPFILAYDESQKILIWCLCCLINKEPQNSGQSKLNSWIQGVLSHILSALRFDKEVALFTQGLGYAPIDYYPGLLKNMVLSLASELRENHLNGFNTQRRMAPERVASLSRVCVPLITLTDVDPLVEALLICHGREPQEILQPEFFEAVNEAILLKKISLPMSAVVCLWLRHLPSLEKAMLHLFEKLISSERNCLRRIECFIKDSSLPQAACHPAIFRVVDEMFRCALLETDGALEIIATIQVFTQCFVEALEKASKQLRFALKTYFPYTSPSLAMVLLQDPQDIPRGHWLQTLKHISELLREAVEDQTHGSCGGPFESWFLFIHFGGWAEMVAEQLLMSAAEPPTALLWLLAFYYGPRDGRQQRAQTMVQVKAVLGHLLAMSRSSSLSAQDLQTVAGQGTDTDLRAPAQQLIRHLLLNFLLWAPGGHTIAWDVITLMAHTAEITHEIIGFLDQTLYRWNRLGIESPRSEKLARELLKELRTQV
B3: Speckle-type POZ protein (Homo sapiens), O43791 (parent)
chain: B1 chain
partner: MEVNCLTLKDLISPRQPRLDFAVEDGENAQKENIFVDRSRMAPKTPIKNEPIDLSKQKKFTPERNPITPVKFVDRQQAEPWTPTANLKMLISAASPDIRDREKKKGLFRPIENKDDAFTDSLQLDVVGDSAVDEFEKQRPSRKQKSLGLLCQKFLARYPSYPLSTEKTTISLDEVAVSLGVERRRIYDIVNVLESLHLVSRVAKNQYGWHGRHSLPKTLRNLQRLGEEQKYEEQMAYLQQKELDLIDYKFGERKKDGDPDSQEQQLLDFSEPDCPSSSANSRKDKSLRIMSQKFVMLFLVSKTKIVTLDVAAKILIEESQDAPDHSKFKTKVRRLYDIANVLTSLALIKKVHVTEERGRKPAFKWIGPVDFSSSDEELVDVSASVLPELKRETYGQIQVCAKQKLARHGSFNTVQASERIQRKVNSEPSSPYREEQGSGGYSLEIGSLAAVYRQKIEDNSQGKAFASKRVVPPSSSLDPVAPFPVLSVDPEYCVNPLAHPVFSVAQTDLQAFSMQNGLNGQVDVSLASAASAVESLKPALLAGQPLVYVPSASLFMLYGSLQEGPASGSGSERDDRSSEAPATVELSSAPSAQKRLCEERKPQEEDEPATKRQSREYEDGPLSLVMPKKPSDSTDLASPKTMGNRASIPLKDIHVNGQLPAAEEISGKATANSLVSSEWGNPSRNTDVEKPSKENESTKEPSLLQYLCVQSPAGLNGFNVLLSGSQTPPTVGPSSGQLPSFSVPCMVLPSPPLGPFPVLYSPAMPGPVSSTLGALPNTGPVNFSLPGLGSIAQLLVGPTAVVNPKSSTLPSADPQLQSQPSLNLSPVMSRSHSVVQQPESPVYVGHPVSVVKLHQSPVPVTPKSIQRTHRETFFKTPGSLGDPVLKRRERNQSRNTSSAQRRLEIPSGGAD

Variants of: B1
Settings: with fgf3_human FGF3, P11487

Row | effect of a mutation on the interaction | Variant
1 | with no effect | F102C

Variants of: B1
Settings: with fgf3_human FGF3, P11487
Remark: another data set of the same source

Row | effect of a mutation on the interaction | Variant
2 | with no effect | F133L

Variants of: B1
Settings: with fgf3_human FGF3, P11487
Remark: another data set of the same source

Row | effect of a mutation on the interaction | Variant
3 | with no effect | F133V

Variants of: B1
Settings: with fgf3_human FGF3, P11487
Remark: another data set of the same source

Row | effect of a mutation on the interaction | Variant
4 | with no effect | Y87C

Variants of: B2
Settings: with fancc_human FANCC

Row | effect of a mutation on the interaction | Variant
5 | with no effect | Y87C

Variants of: B2
Settings: with fancc_human FANCC
Remark: another data set of the same source

Row | effect of a mutation on the interaction | Variant
6 | with no effect | F133V

Variants of: B2
Settings: with fancc_human FANCC
Remark: another data set of the same source

Row | effect of a mutation on the interaction | Variant
7 | with no effect | F133L

Variants of: B2
Settings: with fancc_human FANCC
Remark: another data set of the same source

Row | effect of a mutation on the interaction | Variant
8 | with no effect | F102C

Variants of: B3
Settings: with e2f7_human E2F7, Q96AV8

Row | effect of a mutation on the interaction | Variant
9 | with no effect | Y87C

Variants of: B3
Settings: with e2f7_human E2F7, Q96AV8
Remark: another data set of the same source

Row | effect of a mutation on the interaction | Variant
10 | with no effect | F133V

Variants of: B3
Settings: with e2f7_human E2F7, Q96AV8
Remark: another data set of the same source

Row | effect of a mutation on the interaction | Variant
11 | with no effect | F133L

Variants of: B3
Settings: with e2f7_human E2F7, Q96AV8
Remark: another data set of the same source

Row | effect of a mutation on the interaction | Variant
12 | with no effect | F102C
